From patent publication US20260049138A1 (Chugai, published 2026)

Molecular target: T1, CD3ε homodimer protein (human, UniProt P07766 23-126, limits assumed, sulfo-tag or biotin label in the ECL assays; amine-coupled to the chip in SPR)
T1 construct: also called human CD3ε homodimer protein; CD3 (CD3ε)
Assay: SPR Biacore T200; CD3ε homodimer on CM4 chip;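 note: Single-residue variant antibodies injected as analyte over CD3ε homodimer immobilized by amine coupling, run at 25 °C in HBS-EP+ buffer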

T1 sequence (P07766 23-126 limits assumed): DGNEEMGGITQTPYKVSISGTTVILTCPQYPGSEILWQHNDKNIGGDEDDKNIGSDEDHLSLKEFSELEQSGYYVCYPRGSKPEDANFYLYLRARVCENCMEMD

| Binder | ratio of amounts bound Z=Y/X (altered form / CE115HA000) |
| --- | --- |
| CE115HA000 K52bS one-arm antibody (antibody, human IgG1, kappa, L234A L235A, N297A, name in Kabat numbering) heavy: QVQLVESGGGVVQPGRSLRLSCAASGFTFSNAWMHWVRQAPGKGLEWVAQIKASSNNYATYYAESVKGRFTISRDDSKNSLYLQMNSLKTEDTAVYYCRYVHYGAYYGVDAWGQGTTVTVSSASTKGPSVFPLAPSSKSTSGGTAALGCLVKDYFPEPVTVSWNSGALTSGVHTFPAVLQSSGLYSLSSVVTVPSSSLGTQTYICNVNHKPSNTKVDKKVEPKSCDKTHTCPPCPAPEAAGGPSVFLFPPKPKDTLMISRTPEVTCVVVDVSHEDPEVKFNWYVDGVEVHNAKTKPREEQYASTYRVVSVLTVLHQDWLNGKEYKCKVSNKALPAPIEKTISKAKGQPREPQVYTLPPSRCELTKNQVSLSCAVKGFYPSDIAVEWESNGQPENNYKTTPPVLDSDGSFFLVSKLTVDKSRWQQGNVFSCSVMHEALHNHYTQKSLSLSPDYKDDDDK EPKSSDKTHTCPPCPAPELLGGPSVFLFPPKPKDTLMISRTPEVTCVVVDVSHEDPEVKFNWYVDGVEVHNAKTKPREEQYNSTYRVVSVLTVLHQDWLNGKEYKCKVSNKALPAPIEKTISKAKGQPREPQVCTLPPSRDELTKNQVSLWCLVKGFYPSDIAVEWESNGQPENNYKTTPPVLDSDGSFFLYSKLTVDKSRWQQGNVFSCSVMHEALHNRYTQKSLSLSP light: DIVMTQSPLSLPVTPGEPASISCRSSQSLVHSNRNTYLHWYQQKPGQAPRLLIYKVSNRFSGVPDRFSGSGSGTDFTLKISRVEAEDVGVYYCGQGTQVPYTFGQGTKLEIKRTVAAPSVFIFPPSDEQLKSGTASVVCLLNNFYPREAKVQWKVDNALQSGNSQESVTEQDSKDSTYSLSSTLTLSKADYEKHKVYACEVTHQGLSSPVTKSFNRGEC | 0.68 |
| CE115HA000 K64D one-arm antibody (antibody, human IgG1, kappa, L234A L235A, N297A, name in Kabat numbering) heavy: QVQLVESGGGVVQPGRSLRLSCAASGFTFSNAWMHWVRQAPGKGLEWVAQIKAKSNNYATYYAESVDGRFTISRDDSKNSLYLQMNSLKTEDTAVYYCRYVHYGAYYGVDAWGQGTTVTVSSASTKGPSVFPLAPSSKSTSGGTAALGCLVKDYFPEPVTVSWNSGALTSGVHTFPAVLQSSGLYSLSSVVTVPSSSLGTQTYICNVNHKPSNTKVDKKVEPKSCDKTHTCPPCPAPEAAGGPSVFLFPPKPKDTLMISRTPEVTCVVVDVSHEDPEVKFNWYVDGVEVHNAKTKPREEQYASTYRVVSVLTVLHQDWLNGKEYKCKVSNKALPAPIEKTISKAKGQPREPQVYTLPPSRCELTKNQVSLSCAVKGFYPSDIAVEWESNGQPENNYKTTPPVLDSDGSFFLVSKLTVDKSRWQQGNVFSCSVMHEALHNHYTQKSLSLSPDYKDDDDK EPKSSDKTHTCPPCPAPELLGGPSVFLFPPKPKDTLMISRTPEVTCVVVDVSHEDPEVKFNWYVDGVEVHNAKTKPREEQYNSTYRVVSVLTVLHQDWLNGKEYKCKVSNKALPAPIEKTISKAKGQPREPQVCTLPPSRDELTKNQVSLWCLVKGFYPSDIAVEWESNGQPENNYKTTPPVLDSDGSFFLYSKLTVDKSRWQQGNVFSCSVMHEALHNRYTQKSLSLSP light: DIVMTQSPLSLPVTPGEPASISCRSSQSLVHSNRNTYLHWYQQKPGQAPRLLIYKVSNRFSGVPDRFSGSGSGTDFTLKISRVEAEDVGVYYCGQGTQVPYTFGQGTKLEIKRTVAAPSVFIFPPSDEQLKSGTASVVCLLNNFYPREAKVQWKVDNALQSGNSQESVTEQDSKDSTYSLSSTLTLSKADYEKHKVYACEVTHQGLSSPVTKSFNRGEC | 0.72 |
| CE115HA000 K52bY one-arm antibody (antibody, human IgG1, kappa, L234A L235A, N297A, name in Kabat numbering) heavy: QVQLVESGGGVVQPGRSLRLSCAASGFTFSNAWMHWVRQAPGKGLEWVAQIKAYSNNYATYYAESVKGRFTISRDDSKNSLYLQMNSLKTEDTAVYYCRYVHYGAYYGVDAWGQGTTVTVSSASTKGPSVFPLAPSSKSTSGGTAALGCLVKDYFPEPVTVSWNSGALTSGVHTFPAVLQSSGLYSLSSVVTVPSSSLGTQTYICNVNHKPSNTKVDKKVEPKSCDKTHTCPPCPAPEAAGGPSVFLFPPKPKDTLMISRTPEVTCVVVDVSHEDPEVKFNWYVDGVEVHNAKTKPREEQYASTYRVVSVLTVLHQDWLNGKEYKCKVSNKALPAPIEKTISKAKGQPREPQVYTLPPSRCELTKNQVSLSCAVKGFYPSDIAVEWESNGQPENNYKTTPPVLDSDGSFFLVSKLTVDKSRWQQGNVFSCSVMHEALHNHYTQKSLSLSPDYKDDDDK EPKSSDKTHTCPPCPAPELLGGPSVFLFPPKPKDTLMISRTPEVTCVVVDVSHEDPEVKFNWYVDGVEVHNAKTKPREEQYNSTYRVVSVLTVLHQDWLNGKEYKCKVSNKALPAPIEKTISKAKGQPREPQVCTLPPSRDELTKNQVSLWCLVKGFYPSDIAVEWESNGQPENNYKTTPPVLDSDGSFFLYSKLTVDKSRWQQGNVFSCSVMHEALHNRYTQKSLSLSP light: DIVMTQSPLSLPVTPGEPASISCRSSQSLVHSNRNTYLHWYQQKPGQAPRLLIYKVSNRFSGVPDRFSGSGSGTDFTLKISRVEAEDVGVYYCGQGTQVPYTFGQGTKLEIKRTVAAPSVFIFPPSDEQLKSGTASVVCLLNNFYPREAKVQWKVDNALQSGNSQESVTEQDSKDSTYSLSSTLTLSKADYEKHKVYACEVTHQGLSSPVTKSFNRGEC | 0.74 |
| CE115HA000 K64A one-arm antibody (antibody, human IgG1, kappa, L234A L235A, N297A, name in Kabat numbering) heavy: QVQLVESGGGVVQPGRSLRLSCAASGFTFSNAWMHWVRQAPGKGLEWVAQIKAKSNNYATYYAESVAGRFTISRDDSKNSLYLQMNSLKTEDTAVYYCRYVHYGAYYGVDAWGQGTTVTVSSASTKGPSVFPLAPSSKSTSGGTAALGCLVKDYFPEPVTVSWNSGALTSGVHTFPAVLQSSGLYSLSSVVTVPSSSLGTQTYICNVNHKPSNTKVDKKVEPKSCDKTHTCPPCPAPEAAGGPSVFLFPPKPKDTLMISRTPEVTCVVVDVSHEDPEVKFNWYVDGVEVHNAKTKPREEQYASTYRVVSVLTVLHQDWLNGKEYKCKVSNKALPAPIEKTISKAKGQPREPQVYTLPPSRCELTKNQVSLSCAVKGFYPSDIAVEWESNGQPENNYKTTPPVLDSDGSFFLVSKLTVDKSRWQQGNVFSCSVMHEALHNHYTQKSLSLSPDYKDDDDK EPKSSDKTHTCPPCPAPELLGGPSVFLFPPKPKDTLMISRTPEVTCVVVDVSHEDPEVKFNWYVDGVEVHNAKTKPREEQYNSTYRVVSVLTVLHQDWLNGKEYKCKVSNKALPAPIEKTISKAKGQPREPQVCTLPPSRDELTKNQVSLWCLVKGFYPSDIAVEWESNGQPENNYKTTPPVLDSDGSFFLYSKLTVDKSRWQQGNVFSCSVMHEALHNRYTQKSLSLSP light: DIVMTQSPLSLPVTPGEPASISCRSSQSLVHSNRNTYLHWYQQKPGQAPRLLIYKVSNRFSGVPDRFSGSGSGTDFTLKISRVEAEDVGVYYCGQGTQVPYTFGQGTKLEIKRTVAAPSVFIFPPSDEQLKSGTASVVCLLNNFYPREAKVQWKVDNALQSGNSQESVTEQDSKDSTYSLSSTLTLSKADYEKHKVYACEVTHQGLSSPVTKSFNRGEC | 0.82 |

Other lines, results leading:

| ratio of amounts bound Z=Y/X (altered form / CE115HA000) | Binder |
| --- | --- |
| 0.74 | CE115HA000 K64E one-arm antibody (antibody, human IgG1, kappa, L234A L235A, N297A, name in Kabat numbering) heavy: QVQLVESGGGVVQPGRSLRLSCAASGFTFSNAWMHWVRQAPGKGLEWVAQIKAKSNNYATYYAESVEGRFTISRDDSKNSLYLQMNSLKTEDTAVYYCRYVHYGAYYGVDAWGQGTTVTVSSASTKGPSVFPLAPSSKSTSGGTAALGCLVKDYFPEPVTVSWNSGALTSGVHTFPAVLQSSGLYSLSSVVTVPSSSLGTQTYICNVNHKPSNTKVDKKVEPKSCDKTHTCPPCPAPEAAGGPSVFLFPPKPKDTLMISRTPEVTCVVVDVSHEDPEVKFNWYVDGVEVHNAKTKPREEQYASTYRVVSVLTVLHQDWLNGKEYKCKVSNKALPAPIEKTISKAKGQPREPQVYTLPPSRCELTKNQVSLSCAVKGFYPSDIAVEWESNGQPENNYKTTPPVLDSDGSFFLVSKLTVDKSRWQQGNVFSCSVMHEALHNHYTQKSLSLSPDYKDDDDK EPKSSDKTHTCPPCPAPELLGGPSVFLFPPKPKDTLMISRTPEVTCVVVDVSHEDPEVKFNWYVDGVEVHNAKTKPREEQYNSTYRVVSVLTVLHQDWLNGKEYKCKVSNKALPAPIEKTISKAKGQPREPQVCTLPPSRDELTKNQVSLWCLVKGFYPSDIAVEWESNGQPENNYKTTPPVLDSDGSFFLYSKLTVDKSRWQQGNVFSCSVMHEALHNRYTQKSLSLSP light: DIVMTQSPLSLPVTPGEPASISCRSSQSLVHSNRNTYLHWYQQKPGQAPRLLIYKVSNRFSGVPDRFSGSGSGTDFTLKISRVEAEDVGVYYCGQGTQVPYTFGQGTKLEIKRTVAAPSVFIFPPSDEQLKSGTASVVCLLNNFYPREAKVQWKVDNALQSGNSQESVTEQDSKDSTYSLSSTLTLSKADYEKHKVYACEVTHQGLSSPVTKSFNRGEC |
| 0.89 | CE115HA000 K64Q one-arm antibody (antibody, human IgG1, kappa, L234A L235A, N297A, name in Kabat numbering) heavy: QVQLVESGGGVVQPGRSLRLSCAASGFTFSNAWMHWVRQAPGKGLEWVAQIKAKSNNYATYYAESVQGRFTISRDDSKNSLYLQMNSLKTEDTAVYYCRYVHYGAYYGVDAWGQGTTVTVSSASTKGPSVFPLAPSSKSTSGGTAALGCLVKDYFPEPVTVSWNSGALTSGVHTFPAVLQSSGLYSLSSVVTVPSSSLGTQTYICNVNHKPSNTKVDKKVEPKSCDKTHTCPPCPAPEAAGGPSVFLFPPKPKDTLMISRTPEVTCVVVDVSHEDPEVKFNWYVDGVEVHNAKTKPREEQYASTYRVVSVLTVLHQDWLNGKEYKCKVSNKALPAPIEKTISKAKGQPREPQVYTLPPSRCELTKNQVSLSCAVKGFYPSDIAVEWESNGQPENNYKTTPPVLDSDGSFFLVSKLTVDKSRWQQGNVFSCSVMHEALHNHYTQKSLSLSPDYKDDDDK EPKSSDKTHTCPPCPAPELLGGPSVFLFPPKPKDTLMISRTPEVTCVVVDVSHEDPEVKFNWYVDGVEVHNAKTKPREEQYNSTYRVVSVLTVLHQDWLNGKEYKCKVSNKALPAPIEKTISKAKGQPREPQVCTLPPSRDELTKNQVSLWCLVKGFYPSDIAVEWESNGQPENNYKTTPPVLDSDGSFFLYSKLTVDKSRWQQGNVFSCSVMHEALHNRYTQKSLSLSP light: DIVMTQSPLSLPVTPGEPASISCRSSQSLVHSNRNTYLHWYQQKPGQAPRLLIYKVSNRFSGVPDRFSGSGSGTDFTLKISRVEAEDVGVYYCGQGTQVPYTFGQGTKLEIKRTVAAPSVFIFPPSDEQLKSGTASVVCLLNNFYPREAKVQWKVDNALQSGNSQESVTEQDSKDSTYSLSSTLTLSKADYEKHKVYACEVTHQGLSSPVTKSFNRGEC |
